Data taken from patent US20250302974A1, “LECTIN-DRUG CONJUGATES” (UNICHEM LABORATORIES LIMITED, priority 2021, published 2025).

How the values were obtained:
[1] = tested on: ovarian cancer cell line (PA-1); test: Cytotoxicity assay, cell titer glow luminescence, 72 h; format: cell-based; conditions: for activity against PA-1 cell lines (in words): IC50 values in nanomoles
Protocol: (§1) T-24 Cell line were cultured in McCoy's 5a Medium Modified supplemented with 10% FBS and the PA-1 Cell line was cultured in EMEM Media supplemented with 10% FBS. The assay was performed by plating 5,000 cells/well and incubated at 37° C. overnight. […] Each concentration was added in triplicate and media-only wells used as a control. After incubation for 72 h cell titer glow (Promega) reagent (50 μL) was added to each well and the plates shaken for 5 mins and the luminescence was recorded. Percent viability was determined by dividing luminescence of the treated well by the non-treated well and multiplying by 100. Data was analysed using non-linear regression with a logarithmic scale.
(§2) 5,000 cells/well were plated and incubated at 37° C. overnight. Conjugates/vehicle control dilutions were made in respective media and added to cells. Volume added: 50 uL to each well. Starting treatment concentration was 1 uM for Conjugate of formula 16 and 18, and control SEQ ID NO: 5 alone and 10% for vehicle control (1×PBS with 20% DMA) and then diluted 10-fold down for a total of 11 treatment dilutions. Each concentration was analysed in triplicates. Media-only wells was used as a control to calculate percent viability. Cell titer glow reagent (volume: 50 uL) was added to each well, the plate was shaken for 5 mins and the luminescence was recorded. Drug Treatment Time: 72 hours. Percent viability was calculated by dividing the luminescence signal obtained for each treated well by the untreated well (media-only control) and multiplying by 100.

[2] = tested on: human urinary bladder cancer cell line (T-24); test: as above; format: cell-based
Protocol: as §1, §2

B1: Formula 19: Recombinant lectin of SEQ ID NO 2 (via Formula C) conjugated with Tesirine, DAR 1.32 (conjugate)
chain: TYKITVRVYQTNPDAFFHPVEKTVWKYANGGTWTITDDQHVLTMGGSGTSGTLRFHADNGESFTATFGVHNYKRWCDIVTNLAADETGMVINQQYYSQKNREEARERQLSNYQVKNAKGRNFQIVYTEAEGNDLHANLIIG
modifications: Tesirine conjugate via Formula C linker
- IC50 ([1]; 72 h): 5.22 nM
- IC50 ([1]; 72 h, listed as formula 19): 5.22 nM
- activity against PA-1 cell lines (in words) [1]: potent activity

B2: Formula 18: Recombinant lectin of SEQ ID NO 5 conjugated with Tesirine, DAR 1.05 (conjugate)
chain: SYKITVRVYQTNPDAFFHPVEKTVWKYANGGTWTITDDQHVLTMGGSGTSGTLRFHADNGESFTATFGVHNYKRWGDIVTNLAADETGMVINQQYYSQKNREEARERQLSNYQVKNAKGRNFQIVYTEAEGNDLHANLIIGC
modifications: Tesirine conjugate
- IC50 ([2]; 72 h): 19.9 nM
- activity against T-24 cell lines (in words) ([2]; IC50 values in nanomoles): potent activity
- IC50 ([1]; 72 h): 1.04 nM
- activity against PA-1 cell lines (in words) [1]: potent activity

B3: SEQ ID NO: 5: recombinant S. rolfsii lectin variant with T1S, C76G and cysteine added at C terminal end (protein)
chain: B2 chain
modifications: C-terminal cysteine added
notes: recombinant S. rolfsii lectin variant with T1S, C76G and cysteine added at C terminal end
- cytotoxic effects below 10 μM concentration ([2]; below 10 μM): does not exhibit major cytotoxic effects
- IC50 values, PA-1 Cell line ([1]; 72 h): 16 µg/mL
- cytotoxic effects below 10 μM concentration ([1]; below 10 μM): does not exhibit major cytotoxic effects
